Test [1] relates to GFP-DLC1. Briefly: GST pull-down of GFP-DLC1 in A549 cells. The test is classed as cell-based. As to conditions: A549 cell extracts, anti-DLC1 immunoblot, listed as wild-type GST-R8. The text has this: However, as talin R8 interacts with RIAM ([Goult et al., 2013b]) and paxillin (shown here) in addition to DLC1, we used several approaches to evaluate whether binding of talin R8 to endogenous RIAM or paxillin might have contributed to the observed results. For RIAM, the level of expression in the cell lines used here varied from very low to undetectable. To detect RIAM protein in any of the cell extracts, we had to use an anti-RIAM immunoprecipitation step followed by anti-RIAM immunoblotting. Using these conditions, endogenous RIAM was detected in A549 and H358 cells, but not in 293T cells (Figure S5A).
Figure S5, related to figure 6. […]
form a detectable complex with GST-talin R8.
(A) The expression of endogenous RIAM in cell lines. Cell extracts were subjected to immunoprecipitation followed by immunoblotting with anti-RIAM antibody.
(B) A complex between GST-talin R8 and endogenous RIAM is undetectable in A549 cells.
A549 cells were co-transfected with GFP-DLC1 and the GST constructs indicated. Cell extracts were subject to a glutathione bead pull down assay followed by immunoblotting with anti-GST and anti-RIAM antibodies on the same membrane (left). No complex between GST-talin R8 and RIAM could be detected. Under the same conditions, wild-type GST-R8 pulled-down the co-transfected GFP-DLC1; the immunoblot with anti-GST and anti-DLC1 on the same membrane is shown (right). […]
A general note: A western blot detects proteins with antibodies after separation by electrophoresis.

Test [2] concerns endogenous paxillin. Nature of the test: GST pull-down of endogenous paxillin in A549 and H358 cells. It counts as cell-based, human. As to conditions: anti-paxillin immunoblot. The text has this: To investigate whether the biological effects of GST-R8 might be partly mediated via paxillin, we first confirmed that endogenous paxillin is expressed in cell lines A549, H358, and 293T (Figure S6A). […] As a positive control, HEK293 cells were co-transfected with a paxillin-DDK construct (OriGene) and GST-R8 (wild-type, R1544E and 2E mutants), followed by a GST pull-down assay.
Figure S6, related to figure 5. Binding of GST-talin R8 to endogenous paxillin is undetectable in A549 and H358 cells.
(A) The expression of endogenous paxillin in cell lines. Cell extracts were assayed by immunoblotting with anti-paxillin antibody.
(B) A complex of GST-talin R8 with endogenous paxillin is undetectable in A549 (top) and H358 (bottom) cells. Cells were transfected with the GST constructs indicated, and cell extracts subjected to a glutathione bead pull down assay followed by immunoblotting with anti-GST and anti-paxillin antibodies on the same membrane.
(C) Wild-type GST-talin R8 forms a complex with transfected paxillin in 293T cells. […]
G418 colony growth, soft agar growth and cell migration assays - As described previously (Qian et al., 2009), transfected A549 cells were counted, and equal numbers of cells were seeded in […]

Entries after “also recorded” stand apart in the source; their conditions may differ.

B1: GST-R8: GST-tagged talin R8, amino acids 1,453–1,580 (protein)
chain: NSQAGQQGLVEPTQFARANQAIQMACQSLGEPGCTQAQVLSAATIVAKHTSALCNSCRLASARTANPTAKRQFVQSAKEVANSTANLVKTIKALDGDFTEENRAQCRAATAPLLEAVDNLSAFASNPE
modifications: left off: GST, end not stated, kept
Take B1: the “binding of GFP-DLC1” value in test [1] was “pulled-down; also recorded: did bind GFP-DLC1”. Also, the “complex with endogenous paxillin” value in test [2] is “insufficient to detect binding”; in test [2] (listed as GST-talin R8) it was “undetectable”.

(Values after publication PMC4938799, “LD Motif Recognition by Talin: Structure of the Talin-DLC1 Complex” (Structure(London, England:1993), 2016).)
